According to doi:10.1101/2020.06.12.148387:

Biological target: SARS-CoV-2 Spike ectodomain (pre-fusion, with proline mutations) (SARS-CoV-2) (UniProt P0DTC2)

EY6A IgG (antibody)
plaque reduction neutralisation test (Oxford), SARS-CoV-2, ND50: 30 µg/mL
